Results published in a protein production outcome set (Wang et al. 2014).

Experiment: label from the status in PepcDB records
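Further: failed if final PepcDB status was selected cloned or expressed and not failed if soluble or beyond.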

Q: For “MNNTDCLLGRRKEINETAYANVLKKELVVYMKRKLMIFFIASVVTLLICSVAVLASGEDVHILINNNGIKFSIPPYVKDEEVFLPMREIFELYGFEVNWNGTERSAEAAKDGKIVKVKVGSNIVKLYGEDYNSKDDVFIFRDRIFISTDVIEAGLNIKVKWDKNKRTIYLNEYTNESITIVGNDNSVILGSNILVNISPRYDIDTVNKIIGENDEMLVEKNYTGAIRGYKELLKHISAKENPEEYIHVLINLGNAYVELASIVNREQNALEAILFYEEALKVDSIDKYPHKKALANRGMGSAYFILSTVRDVEKNTAKALEMFNEALNIFVKDGDQYNCGYLHYLKGRTYYWMAASTNTRDNIIKSLDSLEEALTTFNTENYKDEYIIARSCHGLVLTQFFNFSGEVEHLQRAFDAFNEVLDNITIEEKPILYASTYMQLASYYMYLANKDGDVESYYKCISCMQESLKVYTLDSDSYNYAVAYANIGKAYLLMSYLSQTNVNIDRALSAYEEALKVFKISQFPFNYASVQIDLGEAYTVKAGITGSEEDYNNAQNAFNNALKIYTLKNYPYQYAKTYSEFGKMYIALAYIKDKEENNKKAIECFNEALKVYSFEKYPVLYGYNQELIALSNIELSKIRDPKKHLNKSVEVCNNALKVFRKENIPYLYGVVNIYLGNSYTFLASIENTKENCIQAEKAYMNALEIFTKDASLTYYLEAMTGLAENYVIKSQVENRKENLEKAIAKCNDIIELLDRHRSSPYYGKAQYILLLSYLGLSDFENKEVNLNKALIANREAVSVFEEGNLVFDKSIALAAGANIYLKYSEVNNTVKNLTEAKRTVESALTYFKKENYPYQYAILMNSMGTIYQKLSEKENRIDNLKKSIEAYKEANEIFSIEEYGLYFAKTKHDMGDVYMKLAGSEDRKANIQKALECFSEAIRIYTNEDYPLIHEEIIKKMENIKK”, which protein production is on record?
A: Its protein production is “failed”.

Q: With “MNNTGLSVKKVVAIGIGSAIYVILARFTSIPTPIPNTNIELVFPFLAFFASIYGATVGFSVGFIGHALSDFIMYGQTWWSWVLATGILGWIIGLAYKRLDLKNGIFGLKQIILFNIVQIIANILAWIVVAPIGDIIIYSEPANKVFVQGISATISNGISILIIGTILLKAYASTKIKKGSLRKED” as the sequence, how does the protein production read?
A: Its protein production is “failed”.

Q: With “MNNVTTTLTDTTWYKAGTITDVPENGGACAMIQGKQIAIFNFTRRDEWFATDNLCPHKQQMILSRGMIGDMSEEPKVACPFHKKSFSLKDGHCMSGDDYTIKTYPIKVEDGLIFIGLNE” as the sequence, how does the protein production read?
A: The protein production was “failed”.

Q: Which protein production does the source give for “MNPANGEVTSYWFPGTTSGILTRNGSMIHLLSITASVLHPDDPSLSERESVQVQQYRLSSLLAAVLLPVFGTLYSWADPQAVDPAWIRLALSGLLLGLFVGSYLSDRVCRNYVPLT” here?
A: Its protein production is “failed”.

Q: For “MNPDFLGALLIGLVGAGHCMGMCGGIASLLSLGSSSSKSSPTIPLFYNLGRLSSYALIGALVGGAISGLSELSGLAQSLAWLRFVAAIFMILVALYIAKWWQGLLIVEKMGQHLWKFISPAGKSLLPLKKPIHALPFGFVWGWLPCGLVYSALTWSAVSGSAVNGGLIMLAFGLGTLPSMLAVGYGASHFQKLQKSLIFRNISALILIVYGAYTAAGAMQMLGFI”, which protein production is on record?
A: Its protein production is “failed”.

Q: Which protein production does the source give for “MNPGAYAVPSSAQGWTGTESIGKSSAVNHHRDDGGQEMAGALRKMAVYLGLVEDDRYDHRYADEYDDFEDFDEPLDERPSRNRSPRDDSRNNAVTDSSDHSPSRNERRSPAPAPATADLARITTLHPRTYNEARTIGEHFREGIPVIMNLTEMVDSDAKRLVDFAAGLIFGLHGSIERVTNKVFLLSPANVEVTAEDKARIAERGFFNQS” here?
A: The protein production was “failed”.

Q: For “MNPGGAEVSVVIPAWNAEATLGRALASVRAQTLAPRQVIVVNDGSSDATPEIAARMATKTFPVTVIDRTGRGSGPAAARNAGIAAAGEPFVAFLDADDVWLPDKLARQMAALRASPDAVLCCCDAQWVGEDAPARTAHPTIYEDRPIKGGAEAWKEILLDCYVGTPCVVARRAALIEAGGFDERLVVGEDQDLWIRLALQGPVIALPEVLVRYGLSADSHMARHRALAASLWLPHFEALVSGLGARLSAGERDAILRARLWRMARSVYLDGRKDLGLSLMARAVAHGLPRRARMVFLARARLRSALGRNGLEHHHHHH”, which protein production is on record?
A: The protein production was “failed”.

Q: For “MNPIILALFDVSIFILLAEILSSLVQKYGLPKLIGELLAGMIIGPYALGSLLNQLLGFPLIGINSYIEFLAEFSVILLIFASGLEHGIAPIKSSGILGFLGATFGALLPFFAAYYFYISSFGLDSALILGTAMGATSLAAVASIIEEGKLKGKGINFMVSSAAADDVVDLLLLSVVIAILQGESTSVTSISLKIIALVVIWVVILVVSIILIPKITDRISDKYIEEFPLAVLFGLTLLMVSLGYSPIISAFVAGVAFANSVKNSKIKEISSTLLSVFGPLFFVYIGAEVNFLTLNLNTVILSLELTAIATIFKWLGIFPFALAYLRNAKAANTVALGMVPRGETGLVIASLGLSYNALNQEEFEGIVFMSIFTTLIGSALFKIYAKKHLVS”, which protein production is on record?
A: Its protein production is “failed”.

Q: With “MNPPSGPRVPPSPTQEPSCMATPAPPSWWDSSQSSISSLGRLPSISPTAPGTWAAAWVPLPTVDVPDHAHYTLGTVILLVGLTGMLGNLTVIYTFCRSRSLRTPANMFIINLAVSDFLMSFTQAPVFFTSSLYKQWLFGETGCEFYAFCGALFGISSMITLTAIALDRYLVITRPLATFGVASKRRAAFVLLGVWLYALAWSLPPFFGWSAYVPEGLLTSCSWDYMSFTPAVRAYTMLLCCFVFFLPLLIIIYCYIFIFRAIRETGRALQTFGACKGNGESLWQRQRLQSECKMAKIMLLVILLFVLSWAPYSAVALVAFAGYAHVLTPYMSSVPAVIAKASAIHNPIIYAITHPKYRVAIAQHLPCLGVLLGVSRRHSRPYPSYRSTHRSTLTSHTSNLSWISIRRRQESLGSESEVGWTHMEAAAVWGAAQQANGRSLYGQGLEDLEAKAPPRPQGHEAETPGKTKGLIPSQDPRM” as the sequence, how does the protein production read?
A: Its protein production is “failed”.

Q: For “MNPSHGRGLGSAGGSSSGRNQGGGGETVVEMFPSGLRVLVVDDDPTCLMILERMLRTCLYEVTKCNRAEMALSLLRKNKHGFDIVISDVHMPDMD”, which protein production is on record?
A: The protein production was “failed”.

Q: Which protein production does the source give for “MNQCRLRSLARIRRSLTLGLRGTDQHVLARQALRTIQTTSQRRGVHDLDSFANGCSAAYIEGLYNKWKRNPSSVDESWNELFSSNDWSSPKRSPLQVSHSRKYRRPPVERIAVKARSGERTASGGASAAPAAPPSDWKNIDDHHVIQAIIRAYQSRGHLAADLDPLGIVGPKKRTSVDGTQRHAAREVLRQHFSYIFNDLNTVFKLPSSTMIGGDQEFLSLKEILDRLERIYCGHIGVEYMQITSLTKTNWLRDRFEKPGGLDLTKEEKKLILERLTRSTGFENFLAKKFSSEKRFGLEGCDIMIPAIKEVVDRATDHGVESILIGMAHRGRLNVLANICRKPISDILSQFHGLQATDSGSGDVKYHLGVFQERLNRQTNRMVRITVVANPSHLEHVNPVLLGKARAEMFQRGDTCGSTVMPIIIHGDASFSGQGVVYESMHLSDLPNYTTYGTIHIVSNNQVGFTTDPRFSRSSRYCTDVAKVVNAPILHVNADDPEACIQCARIAIDYRTRFKKDVVIDIVGYRRNGHNEADEPMFTQPLMYQRIKKLKPCLQLYADKLIKEGVVTDSEFKAMVSSYEKICEDAWAKSKTIKTIKYSSWIDSPWPGFFEGRDRLKLCPTGISTDTLKTIGNMFSTPPPPEHKFETHKGILRILAQRTQMVQDKVADWSLGEAFAFGSLLKEGIHVRLSGQDVERGTFSHRHHVLHHQSEDKVVYNSLDHLYPDQAPYSVSNSSLSECAVLGFEHGYSMASPNALVMWEGQFGDFCNTAQCIIDTFIASGETKWVRQSGVVMLLPHSMEGMGPEHSSGRIERFLQMSDDDPDVYPDTCDADFVARQLMNVNWIVTNLSTPANLFHCLRRQVKMGFRKPLINFSPKSLLRHPLARSPFKDFNECSCFQRIIPDKGPAGKQPDCVQKLVFCSGKVYYDLVKERDDHEQVETVALVRVEQLCPFPYDLISQQLELYPKAELLWAQEEHKNMGAWSYVQPRFDTALLKNENESRCVSYHGRPPSASPATGNKVQHYNEYKALITSIFGELTPENKKRIEDRIKKQQAKAKADAQSKPSTKPPAAPPKGGSSPPPGPAPRKPLISLPSRPPRGGKQRSGSAPAPNLVDEDSAARNREPDASAYDGASPSAWKRSGSAPAPSVVPRASASRSPSRKSPSPSHDGISPSTRQESLSKKKSGSAPAPTPTSRGPFRTAPSNTEFIKRRPAKDYGSRNETQSTPGESELDPTKPQP” here?
A: The protein production was “failed”.

Q: Which protein production does the source give for “MNQGKIITVSGPLVVASGMQEANIQDICRVGHLGLVGEIIEMRRDQASIQVYEETSGIGPGEPVVTTGCPLSVELGPGLISEMFDGIQRPLDRFQKATDSDFLIRGVAIPSLDRKAKWAFIPKLSVGQEVVAGDILGTVQETAVIEHRIMVPYKVSGTLVAIHAGDFTVTDTVYEIKQEDGSIYQGSLMQTWPVRQSRPVAQKLIPVEPLVTGQRVIDTFFPVTKGGAAAVPGPFGAGKTVVQHQIAKFANVDIVIYVGCGERGNEMTDVLNEFPELIDPNTGQSIMERTVLIANTSNMPVAAREASIYTGITIAEYFRDMGYSVAIMADSTSRWAEALREMSGRLQEMPGDEGYPAYLGSRIAEYYERAGRVRTLGSQEREGTITAIGAVSPPGGDISEPVTQNTLRIVKVFWGLDAPLAQRRHFPAINWLTSYSLYQDDVGSYIDRKQQSNWSNKVTRAMAILQREASLEEIVRLVGLDSLSEQDRLTMAVARQIREDYLQQNAFDSVDTFTSFPKQEAMLTNILTFNEEASKALSLGAYFNEIMEGTAQVRDRIARSKFIPEENLEQIKGLTQKVTKEIHHVLAKGGI” here?
A: Its protein production is “failed”.

Q: Which protein production does the source give for “MNQLPNCPKCLSEYCYEDGDVLICPECTHEWPKNSNNNDEESAKIIKDANGNLLQNGDTITVVKDLKIKGSSQVIKVGTKVKNIRLVDGDHDIDCRIDGIGAMKLKSQFVKKILEHHHHHH” here?
A: The protein production was “failed”.

Q: For “MNQNKITAGGLEFLVRFAAPTDRLKINDLMIDTARWLKESGSTQWSDILHGFDVHNIEQRIELGEVALFETEAGALAGAMIIRKTPSDWDTDLWEDLAIDKAYYLHRIMVSRAFSGISLSKQMIYFAEKLGIEMSVPFIRLDCIESNETLNQMYVRYGFQFSGKKNGFYLYQKELSQK”, which protein production is on record?
A: The protein production was “not failed”.

Q: For “MNQNWHATLIRHLLLLITVCLIGGLVSGYYGWSLAIGLALYLGWTLKQLLRLHDWLRNHQPDEAPPDGYGLWGEVFDSIYHLQRRDQRVRGRLQAVIDRVQESTAALRDAVIMLDSDGNLEWWNRAAETLLGFKTPQDGGQQVTNLVRHPLFKEYFEAENYLEPLEIPSPINDRMRVQLHITRYGNNEHLMLVRDVTRIHQLEQMRKDFVANVSHELRTPLTVITGYLETLLDNVEDVNPRWSRALQQMSQQGSRMQTLLNDLLLLAKLEATDYPSDNQPVAVDALLAAIKNDAQALSGPRNQRINLEAAPGVKLKGSESELRSAFSNLVFNAVKYTQDEGSIRIRWWADAQGAHLSVQDSGVGIDAKHLPRLTERFYRVDSSRASNTGGTGLGLAIVKHVLMRHRGKLEISSVPGHGSTFTCHFAPAQLANEKA”, which protein production is on record?
A: The protein production was “failed”.

Q: Which protein production does the source give for “MNQPDIKGSCASEFTKVRDAFERNFVLRNEVGAAVAVWVDGDLVVNLWGGSADAGGTRPWQHDTLATVLSGTKALTATCVHQLVDRGELDLHAPVARYWPEFGQAGKQAITLAMVMSHRSGAIGPRGRLGWEQVADWDFVCEQLAAAEPWWQPGAAQGYHMTTFGFILGEVFRRVTGRTVGQYLRTEIAEPLGADVHIGLHPGEQLRCADLVDKPHIRQLLADVQAPGYPTSLNEHPKAALSVSMGFAPDDELGSNDLQLWRQIEFPGTNGQVSALGLATFYNGLAQEKLLSREHMELVRVSQGGFDTDLVLGPRVADHGWGLGYMLNQRGVNGPNPRIFGHGGLGGSFGFVDLEHRIGYAYVMNRFDATKANADPRSVVLSNEVYAALGVNRS” here?
A: The protein production was “failed”.

Q: With “MNQQLLAKTFVELADNLVADFDLIDFLRLLTDRCVGMLDASAAGVLLADRNGELRVMAASDEQVRLLELFQLQNDEGPCLDCFRTGAPVTVPDLSAVTARWPRFAVQARRSGFGAVQALPMRLRDEVVGALNLFRATPGPFDPAATPLAQALADVATISLLQQRTAHRSTVLNEQLQTALNSRVLIEQAKGKLAERQGVDMERAFTALRTYARAHNRRLSDVARAFIDNSEPLTGLGS” as the sequence, how does the protein production read?
A: Its protein production is “failed”.
